The record followed here is US20180119166A1 (UNIVERSITY INDUSTRY FOUNDATION YONSEI UNIVERSITY, published 2018).

B2: 6x-histidine-fused LOS4 (LOS4-His) (enzyme)
chain: MADTVEKVPTVVESSSSSTVEASNSAEKTEPTTEKKKWGDVEDDDDEEEAVSELNSLSIKEEEKPDSILEEPEDSNIKAVTSGDTPYTSASRFEDLNLSPELMKGLYVEMKFEKPSKIQAISLPMIMTPPHKHLIAQAHNGSGKTTCFVLGMLSRVDPTLREPQALCICPTRELANQNMEVLQKMGKFTGITAELAVPDSTRGAPAATRGAPVSAHVVIGTPGTLKKWMAFKRLGLNHLKILVFDEADHMLATDGFRDDSLKIMKDIGRVNPNFQVLLFSATFNETVKDFVARTVKDPNQLFVKREDLALDSVKQYKVVCPKEQNKIEVIKDQIMELGDIGQTIIFVKTKASAQKVHKALAEMGYDVTSVHGNLTESDRDKIVKEFKECLTQVLIATDVIARGFDQQRVNLVVNYNLPTKYETGEPDYEVYLHRVGRAGRFGRKGAVFNLLLDDGWDKEVMEKIEKYFEANVKEIKSWNSEEEYKSALKEAGLLDEHHHHHH
notes: Recombinant protein from E. coli Rosetta (DE3); also called LOS-His

For one assay, the target named is T1, YFP^N-Gle1 (Arabidopsis, UniProt Q0WPZ7 1-611).
T1 construct: BiFC construct expressed in N. benthamiana leaves by agroinfiltration; also called YFP^N-fusion protein of Arabidopsis Gle1; not shown: N-terminal fragment of YFP (YFP^N) for BiFC
T1 sequence: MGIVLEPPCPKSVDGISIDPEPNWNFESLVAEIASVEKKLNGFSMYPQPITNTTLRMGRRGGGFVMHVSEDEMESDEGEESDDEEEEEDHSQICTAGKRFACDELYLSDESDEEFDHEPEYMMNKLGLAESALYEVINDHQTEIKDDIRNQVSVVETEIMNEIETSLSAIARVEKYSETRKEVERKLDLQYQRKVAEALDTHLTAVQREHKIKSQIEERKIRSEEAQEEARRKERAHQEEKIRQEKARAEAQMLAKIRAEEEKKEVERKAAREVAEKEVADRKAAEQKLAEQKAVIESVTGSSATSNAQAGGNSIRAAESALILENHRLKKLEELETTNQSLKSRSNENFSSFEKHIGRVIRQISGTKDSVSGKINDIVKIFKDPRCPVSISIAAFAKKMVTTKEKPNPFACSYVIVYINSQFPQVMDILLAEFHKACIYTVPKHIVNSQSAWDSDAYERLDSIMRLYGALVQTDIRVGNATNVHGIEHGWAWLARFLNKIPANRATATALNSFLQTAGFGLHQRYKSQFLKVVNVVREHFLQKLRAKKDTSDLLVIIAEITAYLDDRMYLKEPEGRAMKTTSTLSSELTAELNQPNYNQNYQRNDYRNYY
In words: BiFC in N. benthamiana leaves (agroinfiltration), confocal microscopy.

The target of assay [1] is maltose-binding protein (MBP) (UniProt P0AEX9 27-392 = MBP). In words: in vitro pull-down on nickel resin, Coomassie blue staining. An excerpt: Purified recombinant proteins are stained with Coomassie blue (left). A mixture of the proteins is bound to a nickel resin or amylose resin, and the resin-bound proteins are eluted and then stained with Coomassie blue (right);
After extensive washing of the resins, the bound proteins were eluted with 2×SDS sample buffer, and the eluted proteins were visualized by Coomassie blue staining.

The target in assay [2] is T2, LOS4 (BiFC fusion protein, FIG. 8B) (Arabidopsis, UniProt Q93ZG7 1-496).
T2 construct: not shown: YFP fragment for BiFC
T2 sequence (looked up): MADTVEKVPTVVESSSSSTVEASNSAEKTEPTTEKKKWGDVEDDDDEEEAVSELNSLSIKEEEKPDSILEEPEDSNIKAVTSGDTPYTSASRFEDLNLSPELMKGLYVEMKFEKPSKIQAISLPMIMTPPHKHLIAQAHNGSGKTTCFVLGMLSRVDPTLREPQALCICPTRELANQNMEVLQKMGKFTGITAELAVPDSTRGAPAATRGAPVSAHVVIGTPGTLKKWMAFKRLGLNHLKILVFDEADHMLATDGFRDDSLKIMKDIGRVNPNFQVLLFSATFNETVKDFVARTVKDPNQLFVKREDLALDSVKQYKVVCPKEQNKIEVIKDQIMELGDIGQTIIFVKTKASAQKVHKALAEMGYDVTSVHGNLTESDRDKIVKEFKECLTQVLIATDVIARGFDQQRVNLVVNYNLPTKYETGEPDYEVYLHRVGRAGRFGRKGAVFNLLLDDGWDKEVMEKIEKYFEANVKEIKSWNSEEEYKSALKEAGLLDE
In words: BiFC (FIG. 8), told again in the discussion.

The target in assay [3] is B2. The experiment in a line: cell-based or functional assay.

B1: LOS4-YFP^C (other, Arabidopsis, UniProt Q93ZG7 1-496, looked up)
chain: MADTVEKVPTVVESSSSSTVEASNSAEKTEPTTEKKKWGDVEDDDDEEEAVSELNSLSIKEEEKPDSILEEPEDSNIKAVTSGDTPYTSASRFEDLNLSPELMKGLYVEMKFEKPSKIQAISLPMIMTPPHKHLIAQAHNGSGKTTCFVLGMLSRVDPTLREPQALCICPTRELANQNMEVLQKMGKFTGITAELAVPDSTRGAPAATRGAPVSAHVVIGTPGTLKKWMAFKRLGLNHLKILVFDEADHMLATDGFRDDSLKIMKDIGRVNPNFQVLLFSATFNETVKDFVARTVKDPNQLFVKREDLALDSVKQYKVVCPKEQNKIEVIKDQIMELGDIGQTIIFVKTKASAQKVHKALAEMGYDVTSVHGNLTESDRDKIVKEFKECLTQVLIATDVIARGFDQQRVNLVVNYNLPTKYETGEPDYEVYLHRVGRAGRFGRKGAVFNLLLDDGWDKEVMEKIEKYFEANVKEIKSWNSEEEYKSALKEAGLLDE
notes: BiFC construct expressed in N. benthamiana leaves by agroinfiltration; also called YFP^C-fusion protein of LOS4; not shown: C-terminal fragment of YFP (YFP^C) for BiFC
Consider B1, for which the binding result with YFP^N-Gle1 was “binds”. In the case of B2, in assay [1], the binding result was “no binding”.

B3: IPK1 (BiFC fusion protein, FIG. 8B) (enzyme, Arabidopsis, UniProt Q93YN9 1-451, looked up)
chain: MEMILEEKDASDWIYRGEGGANLVLAYAGSSPLFVGKVIRIQKARRNDKAIKNANGVVSVLTSDEQHLWRENNELISSPNKEVLEQRYVKNVIIPLLGPKHVDAGVRVSVSKEFLECVDKKVTKQRPLWRVNAANVDTSHDSALILNDHSLFSQGISSGGDCISVEIKPKCGFLPTSRFIGKENMLKTSVSRFKMHQLLKLEYNEISEESEYDPLDLFSGSKESVLEAIKALYSTPQNNFRVFLNGSLILGGSGESTGRTSPEIGYAFEDALKGFIQSEDGHRTECFLQLVSDAVYGSGVLDRLLEIQKLDKLDIEGAIHSYYDLINQPCPICKEGKPLEAELSLHALPLDESLKIVKEYLIAATAKDCSIMISFQSRNAWDSEPSGDYVSLKPTNQTFDYKVHFIDLSLKPLKRMESYYKLDKKIISFYNRKQKAENTAEQIGNSKPSHS
notes: Expressed in N. benthamiana leaves by agroinfiltration; also called inositol 1,3,4,5,6-pentakisphosphate 2-kinase; not shown: YFP fragment for BiFC
As for B3, the binding result in assay [2] is “binds”.

B4: maltose-binding protein (MBP)-fused Gle1 (MBP-Gle1) (other, not shown: large carriers)
chain: MGIVLEPPCPKSVDGISIDPEPNWNFESLVAEIASVEKKLNGFSMYPQPITNTTLRMGRRGGGFVMHVSEDEMESDEGEESDDEEEEEDHSQICTAGKRFACDELYLSDESDEEFDHEPEYMMNKLGLAESALYEVINDHQTEIKDDIRNQVSVVETEIMNEIETSLSAIARVEKYSETRKEVERKLDLQYQRKVAEALDTHLTAVQREHKIKSQIEERKIRSEEAQEEARRKERAHQEEKIRQEKARAEAQMLAKIRAEEEKKEVERKAAREVAEKEVADRKAAEQKLAEQKAVIESVTGSSATSNAQAGGNSIRAAESALILENHRLKKLEELETTNQSLKSRSNENFSSFEKHIGRVIRQISGTKDSVSGKINDIVKIFKDPRCPVSISIAAFAKKMVTTKEKPNPFACSYVIVYINSQFPQVMDILLAEFHKACIYTVPKHIVNSQSAWDSDAYERLDSIMRLYGALVQTDIRVGNATNVHGIEHGWAWLARFLNKIPANRATATALNSFLQTAGFGLHQRYKSQFLKVVNVVREHFLQKLRAKKDTSDLLVIIAEITAYLDDRMYLKEPEGRAMKTTSTLSSELTAELNQPNYNQNYQRNDYRNYY
Take B4: in assay [3], the “LOS4 ATPase activity with RNA and MBP-Gle1 (2 µM), LOS4-His 1 µM” value was roughly 3 fold; the “LOS4 ATPase activity with RNA, MBP-Gle1 (2 µM) and InsP6 (10 µM)” value is greater than 4 fold.
